The supplement of paper PMC11780869

System: Bacillus subtilis
Test: cleaved RNA product abundance (RNA/gDNA barcode ratio) relative to median wild-type variant (ratio to wild type); higher = more accumulation of the downstream cleavage product
In short: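 Cleaved product abundance for each construct is its RNA-to-gDNA barcode ratio, scaled to the median construct carrying the unmutated site. Cleaved RNA was isolated on a gel, reverse transcribed and barcode-sequenced, with genomic DNA barcodes sequenced alongside and UMIs collapsed. The reporters were truncated aprE or tetM mRNAs with barcoded, mutagenized RNase Y cleavage-site windows integrated into the B. subtilis chromosome, and cultures grew in LB at 37°C from OD600 0.0003 to 0.3.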

[1] = experiment (reporter, strain, medium): exp 2b: truncated aprE reporter, strain BJT200, cleavage site: cggR-gapA (positions -7 to +36 mutated)
[2] = experiment (reporter, strain, medium): exp 4a: truncated aprE reporter, strain BJT201 with 2% xylose (RNase J1 expressed), cleavage site: cggR-gapA (positions -7 to +36 mutated)
[3] = experiment (reporter, strain, medium): exp 8a: truncated aprE reporter, strain BJT201 with 2% xylose (RNase J1 expressed), cleavage site: glnRA (positions -5 to +31 mutated)
[4] = experiment (reporter, strain, medium): exp 6: tetM reporter, strain 168, cleavage site: cggR-gapA (positions -7 to +36 mutated)

Sequence | cleaved RNA product abundance [2] | cleaved RNA product abundance [3] | also measured
ACAGACGAAGGAGCCGCAATGAAGTTATTAAAGGATGAATAATCCCTCAATATAAATATCTCTCACTTATTTAAA | 0.181 |  | cleaved RNA product abundance [1]: 0.181
ACAGACGAAGGAGCCGCAAAGAAATTATTAGGGGATGAATAATCCCTCCATATAAATATCTCTCACTTATTTAAA |  |  | cleaved RNA product abundance [1]: 0.188
ACAGACGAAGGAGCCGCAAAGAAGTTATTAAGGGATGAATAATTCCTCAAAATAAATATCTCTCACTTATTTAAA | 0.331 |  | 
CGACATGTCCCGCTTCTTTCATTAATACGTAAGCAACTGTTTTGCTATATACATTTACCTTTTAAGAGGAGGAAT |  | 0.225 | 
ACAGACGAAGGAGCCGCAAAGAACTTATTAAGGGAGGAATAATCCCTCAATATAAATATCTCTCACTTATTTAAA | 0.315 |  | 
CGACATGTCCCGCTTCTTTCATTACTCCGTTAGCAACTCTTTTGCTATATACATTTACCTTTTAAGAGGAGGAAT |  | 1.33 | 
ACAGACGAAGGAGCCGCAAAGAAGTTATTAAAGGATGAATAATCCCTCAATATAAATAGCTCTCACTTATTTAAA | 0.176 |  | 
ACAGACGAAGGAGCCGCAAAGAAGTTATTAAGGGATGAATAAACCCTCAATATAAATATCTCTCACTTATTTAAA | 0.52 |  | cleaved RNA product abundance [1]: 0.443; cleaved RNA product abundance [4]: 0.578
ACAGACGAAGGAGCCGCAAAGAAGTGATTAAGGGATGAGTAATCCCTCAATATAAATATCTCTCACTTATTTAAA | 0.285 |  | 
CGACATGTCCCGCTTCTTTCATTAATCCGTTAACAACTGATTTGCTATATACATTTACCTTTTAAGAGGAGGAAT |  | 0.248 | 
ACAGACGAAGGAGCCGCAAAGAAGTTATTCAGGTATGTATAATCCCTCAATATAAATATCTCTCACTTATTTAAA | 0.143 |  | 
ACAGACGAAGGAGCCGCAAAGAAGTAATTAAGGGATGAATAATCCCTCAATATATATATCTCTCACTTATTTAAA | 0.278 |  | cleaved RNA product abundance [1]: 0.2
ACAGACGAAGGAGCCGCAAAGAAGTTATTAAGGGACGAATAAACCCTCAATATAAATATCTCTCACTTATTTAAA | 0.237 |  | cleaved RNA product abundance [1]: 0.197
CGACATGTCCCGCTTCTTTCATTAATCCTTTAGCAACTGTTTTGCTATATACATTTCCCTTTTAAGAGGAGGAAT |  | 0.343 | 
CGACATGTCCCGCTTCTTTCATTAATCCGTTAGCAACTGTATTGCTATTTACATTTACCTTTTAAGAGGAGGAAT |  | 0.202 | 
ACAGACGAAGGAGCCGCAAAGAAGTTAATAAGGGATGAATAATCCCTCAATATAAAAATCTCTCACTTATTTAAA | 0.278 |  | 
ACAGACGAAGGAGCCGCAAAGAAGTTAATAAGGGATGTATAATCCCTCAATATAAATATCTCTCACTTATTTAAA | 0.322 |  | 
ACAGACGAAGGAGCCGCAAAGAAGTTATTAAGGCATGAATAATCCCTCAATATGAATATCTCTCACTTATTTAAA | 0.0354 |  | 
ACAGACGAAGGAGCCGCAAAGACGTTATTAAGGGATGAATAATCCCTCAACATAAATATCTCTCACTTATTTAAA | 0.316 |  | 
ACAGACGAAGGAGCCGCAAACAAGATATTAAGGGATGAATAATCCCTCAATATAAATATCTCTCACTTATTTAAA | 0.827 |  | 
ACAGACGAAGGAGCCGCAAAGAATTTATTAAGGGATGAATAATCCCTCAATATAAGTATCTCTCACTTATTTAAA | 0.216 |  | 

Sequence | cleaved RNA product abundance [2] | cleaved RNA product abundance [3] | also measured
CGACATGTCCCGCTTCTTTCATTAATCCTTTAGCAACTGTTTTGCTATATACATTTACATTTTAAGAGGAGGAAT |  | 0.783 | 
CGACATGTCCCGCTTCTTTCATTATTCCGTTAACAACTGTTTTGCTATATACATATACCTTTTAAGAGGAGGAAT |  | 0.239 | 
CGACATGTCCCGCTTCTTTCATTAAACCGTTAGCAACTGTTTTGCTACATACATTTACCTTTTAAGAGGAGGAAT |  | 0.237 | 
CGACATGTCCCGCTTCTTTCATTAATCCGTTAGCAACTATTTTGCTATATACACTTACCTTTTAAGAGGAGGAAT |  | 1.29 | 
ACAGACGAAGGAGCCGCAAAGAAGTTATTAAGAGATGAATAATCCCTCACTATAAATATCTCTCACTTATTTAAA | 0.131 |  | 
ACAGACGAAGGAGCCGCAAAGAAGTTATTAAGGTATGAATATTCCCTCAATATAAATATCTCTCACTTATTTAAA | 0.0859 |  | 
ACAGACGAAGGAGCCGCATAGAAGTTATTAAGGGATGAATAATCGCTCAATATAAATATCTCTCACTTATTTAAA | 0.141 |  | 
ACAGACGAAGGAGCCGCAAAGAAGTTATTAAGGGATCCATAATCCCTCAATATAAATATCTCTCACTTATTTAAA | 0.481 |  | 
ACAGACGAAGGAGCCGCAAAGAAGTTATTAAGAGAAGAATAATCCCTCAATATAAATATCTCTCACTTATTTAAA | 0.101 |  | cleaved RNA product abundance [1]: 0.0791; cleaved RNA product abundance [4]: 0.107
ACAGACGAAGGAGCCGCAAAAAAGTTCTTAAGGGATGAATAATCCCTCAATATAAATATCTCTCACTTATTTAAA | 0.218 |  | 
ACAGACGAAGGAGCCGCAAAGAAGTAATTAAGGGATGAATAATCCATCAATATAAATATCTCTCACTTATTTAAA | 0.183 |  | cleaved RNA product abundance [1]: 0.148
ACAGACGAAGGAGCCGCAAAGAAGTTATTAAGGGATGAATAATACATCAATATAAATATCTCTCACTTATTTAAA | 0.0848 |  | 
CGACATGTCCCGCTTCTTTCATTAATCAGTTAGCAACTGTTTTGCTATATACATTTACCGTTTAAGAGGAGGAAT |  | 0.649 | 
CGACATGTCCCGCTTCTTTCATTAATCCATTAGCAACTGTTCTGCTATATACATTTACCTTTTAAGAGGAGGAAT |  | 0.271 | 
ACAGACGAAGGAGCCGCAAAGAAGTTATTAAAGTATGAATAAACCCTCAATATAAATATCTCTCACTTATTTAAA |  |  | cleaved RNA product abundance [1]: 0.102
ACAGACGAAGGAGCCGCAAAGAAGTTATTAATGGATGAATAATCCCTCAATATAGATATCTCTCACTTATTTAAA | 0.215 |  | 
ACAGACGAAGGAGCCGCAAAGAAGCTATTAAGGGACGAATAATCCCTCAATATAAATATCTCTCACTTATTTAAA | 0.436 |  | 
CGACATGTCCCGCTTCTTTCATTAATCCGTTAGCAACTGTTTTGCTAAATACATTTACCTTTTAAGAGGAGGAAT |  | 0.524 | 
ACAGACGAAGGAGCCGCAAAGAAGTTATTAATGGATGAATAATCCCTCAGTATAAATATCTCTCACTTATTTAAA | 0.0629 |  | cleaved RNA product abundance [1]: 0.0853
ACAGACGAAGGAGCCGCAATTAAGTTATTAAGGGATGAATAATCCCTCAATATAAATATCTCTCACTTATTTAAA | 0.863 |  | cleaved RNA product abundance [1]: 0.955
ACAGACGAAGGAGCCGCAAATAAGTTATTAAGGGATGCATAATCCCTCAATATAAATATCTCTCACTTATTTAAA | 1.1 |  | 

Sequence | cleaved RNA product abundance [2] | cleaved RNA product abundance [3] | also measured
ACAGACGAAGGAGCCGCAAAGAAGTAATTAAGGGATGAATAAACCCTCATTATAAATATCTCTCACTTATTTAAA | 0.148 |  | 
CGACATGTCCCGCTTCTTTCATTAATCCGTTAGCAACTGTTTTGCTATAGACATTTAACTTTTAAGAGGAGGAAT |  | 1.15 | 
ACAGACGAAGGAGCCGCAAAGAAGTTATTAAGGGATGAATAATCCATCAATATAAAAATCTCTCACTTATTTAAA | 0.145 |  | 
CGACATGTCCCGCTTCTTTCATTATTCCGTTCGCAACTGTTTTGCTATATACATTTACCTTTTAAGAGGAGGAAT |  | 0.283 | 
ACAGACGAAGGAGCCGCAAAGAAGTTATTAAGGGATTAATAATTCCTCAATATAAATATCTCTCACTTATTTAAA | 0.569 |  | cleaved RNA product abundance [1]: 0.543
ACAGACGAAGGAGCCGCAAAGAAGTTCTTAAGGGATGAAGAATCCCTCAATATAAATATCTCTCACTTATTTAAA |  |  | cleaved RNA product abundance [1]: 0.14
CGACATGTCCCGCTTCTTTCATTAATCCGTTTGCAATTGTTTTGCTATATACATTTACCTTTTAAGAGGAGGAAT |  | 0.536 | 
CGACATGTCCCGCTTCTTTCATTAATCCGTCAGCAACTGTTTTGCTATATATATTTACCTTTTAAGAGGAGGAAT |  | 0.367 | 
CGACATGTCCCGCTTCTTTCATTATTCCGTTAGCAACTGTTTTGCTATATACATCTACCTTTTAAGAGGAGGAAT |  | 1.15 | 
ACAGACGAAGGAGCCGCAAAGAAGTTATTAAGCGATGAATAATTCCTCAATATAAATATCTCTCACTTATTTAAA | 0.096 |  | cleaved RNA product abundance [1]: 0.0741
ACAGACGAAGGAGCCGCAAAGAAGTTATTCAGGGATGAATAATACCTCAATATAAATATCTCTCACTTATTTAAA | 0.134 |  | 
CGACATGTCCCGCTTCTTTCATTAATCCGTTAGAAACTGTTTTGCTAAATACATTTACCTTTTAAGAGGAGGAAT |  | 0.241 | 
ACAGACGAAGGAGCCGCAAAGAAGTTATTAAGGGATGAATAATCCCTCTAAATAAATATCTCTCACTTATTTAAA | 0.429 |  | cleaved RNA product abundance [1]: 0.36
CGACATGTCCCGCTTCTTTCATTAATCCGTTATCAATTGTTTTGCTATATACATTTACCTTTTAAGAGGAGGAAT |  | 0.199 | 
CGACATGTCCCGCTTCTTTCATTATTCCGTTGGCAACTGTTTTGCTATATACATTTACCTTTTAAGAGGAGGAAT |  | 0.851 | 
ACAGACGAAGGAGCCGCAAATAAGTTATTAAGGTTTGAATAATCCCTCAATATAAATATCTCTCACTTATTTAAA | 0.0913 |  | 
CGACATGTCCCGCTTCTTTCATTAATCCGTTAGTATCTGTTTTACTATATACATTTACCTTTTAAGAGGAGGAAT |  | 0.917 | 
CGACATGTCCCGCTTCTTTCATTAATCCGTAAGCAACTGTTTTGGTATATACATTTACCTTTTAAGAGGAGGAAT |  | 0.312 | 
ACAGACGAAGGAGCCGCAAAGAAGTTATTAAGGGATTAATAATCCCCCAATATAAATATCTCTCACTTATTTAAA | 0.272 |  | 
